From IntAct's records for PubMed 19766572

B1: Peroxiredoxin-1 (Gallus gallus (Chicken)), P0CB50 (parent)
chain: MSSGKAFIGKPAPDFTATAVMPDGQFKDIKLSDYRGKYVVFFFYPLDFTFVCPTEIIAYSDRADEFKKINCEIIGASVDSHFCHLAWINTPKKQGGLGTMKIPLVSDTKRVIAKDYGVLKEDEGIAYRGLFIIDEKGILRQITINDLPVGRSVDETLRLVQAFQFTDKHGEVCPAGWKPGSDTIKPDVQKSKEYFSKQK
partner: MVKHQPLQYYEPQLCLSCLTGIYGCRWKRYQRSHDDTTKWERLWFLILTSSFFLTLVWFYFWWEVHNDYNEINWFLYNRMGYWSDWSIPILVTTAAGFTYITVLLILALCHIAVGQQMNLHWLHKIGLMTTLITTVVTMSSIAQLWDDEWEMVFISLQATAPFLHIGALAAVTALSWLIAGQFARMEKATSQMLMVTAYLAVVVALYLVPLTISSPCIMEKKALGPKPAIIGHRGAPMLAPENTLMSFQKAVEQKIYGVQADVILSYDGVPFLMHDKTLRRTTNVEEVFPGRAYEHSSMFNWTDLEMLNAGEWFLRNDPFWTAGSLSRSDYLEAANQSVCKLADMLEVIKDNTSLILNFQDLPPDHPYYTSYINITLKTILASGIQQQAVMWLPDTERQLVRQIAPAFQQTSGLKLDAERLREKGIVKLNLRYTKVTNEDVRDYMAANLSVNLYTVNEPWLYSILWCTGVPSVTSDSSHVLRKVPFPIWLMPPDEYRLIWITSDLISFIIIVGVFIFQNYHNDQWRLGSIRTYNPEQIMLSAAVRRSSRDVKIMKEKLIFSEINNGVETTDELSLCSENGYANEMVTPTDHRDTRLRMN

Variants of: B1
Conditions: with gdpd5_chick GDPD5, Q3KTM2

| effect of a mutation on the interaction | Variant |
| --- | --- |
| disrupting interaction | MSSGKAFIGKPAPDFTATAVMPDGQFKDIKLSDYRGKYVVFFFYPLDFTFVSPTEIIAYSDRADEFKKINCEIIGASVDSHFCHLAWINTPKKQGGLGTMKIPLVSDTKRVIAKDYGVLKEDEGIAYRGLFIIDEKGILRQITINDLPVGRSVDETLRLVQAFQFTDKHGEVSPAGWKPGSDTIKPDVQKSKEYFSKQK [C52S;C173S] |
